First the molecules themselves.
B1: AP-2 complex subunit beta (Homo sapiens), P63010 (parent)
chain: MTDSKYFTTNKKGEIFELKAELNNEKKEKRKEAVKKVIAAMTVGKDVSSLFPDVVNCMQTDNLELKKLVYLYLMNYAKSQPDMAIMAVNSFVKDCEDPNPLIRALAVRTMGCIRVDKITEYLCEPLRKCLKDEDPYVRKTAAVCVAKLHDINAQMVEDQGFLDSLRDLIADSNPMVVANAVAALSEISESHPNSNLLDLNPQNINKLLTALNECTEWGQIFILDCLSNYNPKDDREAQSICERVTPRLSHANSAVVLSAVKVLMKFLELLPKDSDYYNMLLKKLAPPLVTLLSGEPEVQYVALRNINLIVQKRPEILKQEIKVFFVKYNDPIYVKLEKLDIMIRLASQANIAQVLAELKEYATEVDVDFVRKAVRAIGRCAIKVEQSAERCVSTLLDLIQTKVNYVVQEAIVVIRDIFRKYPNKYESIIATLCENLDSLDEPDARAAMIWIVGEYAERIDNADELLESFLEGFHDESTQVQLTLLTAIVKLFLKKPSETQELVQQVLSLATQDSDNPDLRDRGYIYWRLLSTDPVTAKEVVLSEKPLISEETDLIEPTLLDELICHIGSLASVYHKPPNAFVEGSHGIHRKHLPIHHGSTDAGDSPVGTTTATNLEQPQVIPSQGDLLGDLLNLDLGPPVNVPQVSSMQMGAVDLLGGGLDSLVGQSFIPSSVPATFAPSPTPAVVSSGLNDLFELSTGIGMAPGGYVAPKAVWLPAVKAKGLEISGTFTHRQGHIYMEMNFTNKALQHMTDFAIQFNKNSFGVIPSTPLAIHTPLMPNQSIDVSLPLNTLGPVMKMEPLNNLQVAVKNNIDVFYFSCLIPLNVLFVEDGKMERQVFLATWKDIPNENELQFQIKECHLNADTVSSKLQNNNVYTIAKRNVEGQDMLYQSLKLTNGIWILAELRIQPGNPNYTLSLKCRAPEVSQYIYQVYDSILKN
partner: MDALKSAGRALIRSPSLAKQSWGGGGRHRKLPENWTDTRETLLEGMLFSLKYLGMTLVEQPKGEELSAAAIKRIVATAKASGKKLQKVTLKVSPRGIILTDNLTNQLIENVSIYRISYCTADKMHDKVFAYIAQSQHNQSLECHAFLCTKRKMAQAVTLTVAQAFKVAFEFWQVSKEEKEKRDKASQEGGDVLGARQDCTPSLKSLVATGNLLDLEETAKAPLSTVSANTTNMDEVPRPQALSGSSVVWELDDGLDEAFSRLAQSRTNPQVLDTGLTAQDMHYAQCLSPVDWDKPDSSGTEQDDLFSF
B2: Low density lipoprotein receptor adapter protein 1 (Homo sapiens), Q5SW96 (parent)
chain: B1 partner

The first experiment covers variants of B1. The conditions noted are these: with arh_human LDLRAP1, Q5SW96.
For the variant E849A, the “effect of a mutation on the interaction” value was “disrupting interaction strength”.
For the variant E902A, the “effect of a mutation on the interaction” value is given as “decreasing interaction strength”.

In a further experiment the parent is B2. The note with it: with ap2b1_human AP2B1, P63010.
Take R266A: the “effect of a mutation on the interaction” value was “disrupting interaction strength”.

In a further experiment the parent is B2. The note with it: with clh1_bovin CLTC.
For L212A;L213A, the “effect of a mutation on the interaction” value is listed as “disrupting interaction strength”.
Take D214A;E216A: the “effect of a mutation on the interaction” value is given as “disrupting interaction strength”.

(Values after IntAct's records for PubMed 12221107.)
